The values that follow come from the supplement of paper PMC7125110.

B1: glmS ribozyme (parent)
chain: AUAAAAGCGCCAGAACUACAGAAAUGUAGUUGACGAGGAGGAGGUUUAUCGAAUUUUCGGCGGAUGCCUCCAAA

Common to all, as to conditions: with glucosamine-6-phosphate
The variants in series [1] derive from B1. Kind of series: self-cleavage kobs at 160 uM GlcN6P; higher = faster cleavage; RNA array. In a few lines:
(§1)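 Barcoded glmS ribozyme variants on sequenced MiSeq chips were transcribed in situ by E. coli RNA polymerase and tracked through a hybridised Cy3 probe at 37 °C. Glucosamine-6-phosphate (40 μM to 10 mM) in HEPES/KCl/Mg(OAc)2 buffer was flowed in, and tiles were imaged over ~14 h. Signals were normalised to baseline and to non-cleaving reference variants; per-tile medians were fit to one- or two-exponential decays to give kobs. kcat and KM came from weighted Michaelis–Menten fits across concentrations.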

In series [2] the parent is B1. The series is described as follows: self-cleavage kobs at 640 uM GlcN6P; higher = faster cleavage; RNA array. In a few lines:
as §1

The variants in series [3] derive from B1. Kind of series: self-cleavage kobs at 2500 uM GlcN6P; higher = faster cleavage; RNA array. The procedure, abridged:
as §1

Series [4] covers variants of B1. Kind of series: self-cleavage kobs at 10000 uM GlcN6P; higher = faster cleavage; RNA array. The procedure, abridged:
as §1

± gives the standard error. This sample holds only a part of the variants without activity. A value given as a limit tells only on which side of the number the result lay.

For the variant AUAAAAGCGCCAGAUCUACAGAAAUGUAGUUGACGAGGAGGAGGUUUAUAGAAUUUUCGGCGGUUGCCUCUAAA [A15U C50A A64U C71U], the “self-cleavage kobs at 160 uM GlcN6P” value in series [1] was < 1e-05 s⁻¹.
Regarding AUAAAAGUGCCAGAACUACAGAAAUGUAGUUGACGAGGAUGAGGUUUUUCGAAUUUUCGGCGGAAGCCUCCAAA [C8U G40U A48U U65A], the “self-cleavage kobs at 160 uM GlcN6P” value in series [1] was < 1e-05 s⁻¹. Besides, the “self-cleavage kobs at 640 uM GlcN6P” value in series [2] was < 1e-05 s⁻¹. Also, the “self-cleavage kobs at 2500 uM GlcN6P” value in series [3] was < 1e-05 s⁻¹.
Take AUAAAAGCGCAAGAACUACAGAAAUGUAGUUGACGAGGAGGAGGUUUAUGGAAUUUUCGGUGGAUGCCUCCAAA [C11A C50G C61U]: in series [1], the “self-cleavage kobs at 160 uM GlcN6P” value turned out to be 0.000476 ± 0.00011 s⁻¹. The “self-cleavage kobs at 640 uM GlcN6P” value in series [2] is 0.000601 ± 0.00018 s⁻¹.
In the case of AUAAAAGCGACAGAACUACAGAAAUGUAGUUGACGAGGAGGAGGCUUAUCGAAUUUUCGGCGGAUGCCUCCAAA [C10A U45C], the “self-cleavage kobs at 160 uM GlcN6P” value in series [1] was < 1e-05 s⁻¹. Besides, the “self-cleavage kobs at 640 uM GlcN6P” value in series [2] was < 1e-05 s⁻¹. Further, the “self-cleavage kobs at 2500 uM GlcN6P” value in series [3] is < 1e-05 s⁻¹. For the same variant, the “self-cleavage kobs at 10000 uM GlcN6P” value in series [4] is < 1e-05 s⁻¹.
As to AUAAAAGUGCCAGAACUACAGAAAUGUAGUUGACGAGGAGGAGGUUUAUCGAAUUUUCGGCGGAUGCCUCGAAA [C8U C71G], the “self-cleavage kobs at 160 uM GlcN6P” value in series [1] is < 1e-05 s⁻¹. For the same variant, the “self-cleavage kobs at 640 uM GlcN6P” value in series [2] is < 1e-05 s⁻¹. For the same variant, the “self-cleavage kobs at 2500 uM GlcN6P” value in series [3] is < 1e-05 s⁻¹.
Consider AUAAAAACGCCAGAACUACAGAAAUGUAGUUGACGAGGAAGAGGUUUAUCGAAUUUUCGGCGGAUGCCUCCAAA [G7A G40A], for which the “self-cleavage kobs at 160 uM GlcN6P” value in series [1] is < 1e-05 s⁻¹. The “self-cleavage kobs at 640 uM GlcN6P” value in series [2] is < 1e-05 s⁻¹.
For the variant AUAAAAGCGCCAGAACUACAGAAAUGUAGUUGACAAGGAGGAGGUUUAUCGAAUUGUCGGCGGGUGCCUCCAAA [G35A U56G A64G], the “self-cleavage kobs at 160 uM GlcN6P” value in series [1] is < 1e-05 s⁻¹. Besides, the “self-cleavage kobs at 2500 uM GlcN6P” value in series [3] is < 1e-05 s⁻¹. The “self-cleavage kobs at 10000 uM GlcN6P” value in series [4] is < 1e-05 s⁻¹.
In the case of AUAAAAGCGCCAGAACUACAGAAAUGUAGUUGACGAGGAGGUGCUUUAUCGCAUUUUCGGCGGAUGCCUCCAAA [A42U G44C A52C], in series [1], the “self-cleavage kobs at 160 uM GlcN6P” value was < 1e-05 s⁻¹. For the same variant, the “self-cleavage kobs at 640 uM GlcN6P” value in series [2] was < 1e-05 s⁻¹.
Turning to AUAAAAUCGCCUGAACUACAGAAAUGUAGUUGACGAGGAGGAGGUUUAUCGAAUUGUCGGCGGAUGCCUCCAAA [G7U A12U U56G], in series [1], the “self-cleavage kobs at 160 uM GlcN6P” value was < 1e-05 s⁻¹. Besides, in series [2], the “self-cleavage kobs at 640 uM GlcN6P” value is < 1e-05 s⁻¹.
As to AUAAAAGCCCCAGAACUACAGAAAUGUAGUUCCCGAGGGGGAGGUUUAUCGAAUUUUCGGAGGAUGCCUCCAAA [G9C G32C A33C A39G C61A], the “self-cleavage kobs at 160 uM GlcN6P” value in series [1] was < 1e-05 s⁻¹. In series [3], the “self-cleavage kobs at 2500 uM GlcN6P” value was < 1e-05 s⁻¹.
Take AUAAAAUCGCCAGAACUACAGAAAUGUAGUUGACGACGAAGAGGUUUAUCGAAUUUUCGGCGGAUGCCUCCAAA [G7U G37C G40A]: the “self-cleavage kobs at 160 uM GlcN6P” value in series [1] is < 1e-05 s⁻¹. Moreover, the “self-cleavage kobs at 640 uM GlcN6P” value in series [2] is < 1e-05 s⁻¹.
Regarding AUAAAUGCGCCAGAACUACAGAAAUGUAGUUGACGAGGAGGAGGUUUAUCGAAUUUUCGGCGGAUAGCUCCAAA [A6U G66A C67G], the “self-cleavage kobs at 160 uM GlcN6P” value in series [1] is < 1e-05 s⁻¹.
For AUAAAAACGCCCGAACUACAGAAAUGUAGUUGACGAGGAGGAGGUUUAUCGAAUUUACGGCGGAUGCCUCCAAA [G7A A12C U57A], the “self-cleavage kobs at 160 uM GlcN6P” value in series [1] was < 1e-05 s⁻¹. For the same variant, the “self-cleavage kobs at 640 uM GlcN6P” value in series [2] was < 1e-05 s⁻¹. Besides, in series [3], the “self-cleavage kobs at 2500 uM GlcN6P” value is < 1e-05 s⁻¹.
In the case of AUAAAAGCGCCAGAACUACAGAAAUGUAGUUGUCGAGGAGGAGGUUUAUCGAAUUUUCGGCGGAUGCCGCCAAA [A33U U69G], the “self-cleavage kobs at 160 uM GlcN6P” value in series [1] turned out to be 5e-05 ± 2e-05 s⁻¹. Further, in series [2], the “self-cleavage kobs at 640 uM GlcN6P” value is 0.000237 ± 6.3e-05 s⁻¹.
As for AUAAAAUCGCCAGAACUACAGAAAUGUAGUUGACGCGGAGGAGGUUUCUCGAUUUUUCGGCGGAUGCCUCCAAA [G7U A36C A48C A53U], in series [1], the “self-cleavage kobs at 160 uM GlcN6P” value was < 1e-05 s⁻¹. In addition, in series [3], the “self-cleavage kobs at 2500 uM GlcN6P” value was < 1e-05 s⁻¹.
Regarding AUAAAAGCGCCAGCACUACAGAAAUGUAGUUGACGAGGAGGAGGUUUAUCGAUUUUUCGGCGGAUGGCUCCAAA [A14C A53U C67G], the “self-cleavage kobs at 160 uM GlcN6P” value in series [1] turned out to be 3.21e-05 ± 1.4e-05 s⁻¹. Also, the “self-cleavage kobs at 640 uM GlcN6P” value in series [2] is 0.000135 ± 2.7e-05 s⁻¹. Besides, the “self-cleavage kobs at 2500 uM GlcN6P” value in series [3] was 0.000238 ± 4.6e-05 s⁻¹.
